Reference: patent publication KR20160093502A (dated 2016)

Target: T1, EPRS (glutamyl-prolyl tRNA synthetase), human 세포에서 원래 발현된 EPRS (Hela cell lysate) (human, UniProt P07814 1-1512)
T1 construct: Endogenous protein in 50 ug HeLa lysate, denatured on a western blot; also called endogenous EPRS in HeLa cell lysate
Test: western blot on HeLa cell lysate (clones from panning on EPRS WHEP domain antigen)

T1 sequence (P07814 whole entry): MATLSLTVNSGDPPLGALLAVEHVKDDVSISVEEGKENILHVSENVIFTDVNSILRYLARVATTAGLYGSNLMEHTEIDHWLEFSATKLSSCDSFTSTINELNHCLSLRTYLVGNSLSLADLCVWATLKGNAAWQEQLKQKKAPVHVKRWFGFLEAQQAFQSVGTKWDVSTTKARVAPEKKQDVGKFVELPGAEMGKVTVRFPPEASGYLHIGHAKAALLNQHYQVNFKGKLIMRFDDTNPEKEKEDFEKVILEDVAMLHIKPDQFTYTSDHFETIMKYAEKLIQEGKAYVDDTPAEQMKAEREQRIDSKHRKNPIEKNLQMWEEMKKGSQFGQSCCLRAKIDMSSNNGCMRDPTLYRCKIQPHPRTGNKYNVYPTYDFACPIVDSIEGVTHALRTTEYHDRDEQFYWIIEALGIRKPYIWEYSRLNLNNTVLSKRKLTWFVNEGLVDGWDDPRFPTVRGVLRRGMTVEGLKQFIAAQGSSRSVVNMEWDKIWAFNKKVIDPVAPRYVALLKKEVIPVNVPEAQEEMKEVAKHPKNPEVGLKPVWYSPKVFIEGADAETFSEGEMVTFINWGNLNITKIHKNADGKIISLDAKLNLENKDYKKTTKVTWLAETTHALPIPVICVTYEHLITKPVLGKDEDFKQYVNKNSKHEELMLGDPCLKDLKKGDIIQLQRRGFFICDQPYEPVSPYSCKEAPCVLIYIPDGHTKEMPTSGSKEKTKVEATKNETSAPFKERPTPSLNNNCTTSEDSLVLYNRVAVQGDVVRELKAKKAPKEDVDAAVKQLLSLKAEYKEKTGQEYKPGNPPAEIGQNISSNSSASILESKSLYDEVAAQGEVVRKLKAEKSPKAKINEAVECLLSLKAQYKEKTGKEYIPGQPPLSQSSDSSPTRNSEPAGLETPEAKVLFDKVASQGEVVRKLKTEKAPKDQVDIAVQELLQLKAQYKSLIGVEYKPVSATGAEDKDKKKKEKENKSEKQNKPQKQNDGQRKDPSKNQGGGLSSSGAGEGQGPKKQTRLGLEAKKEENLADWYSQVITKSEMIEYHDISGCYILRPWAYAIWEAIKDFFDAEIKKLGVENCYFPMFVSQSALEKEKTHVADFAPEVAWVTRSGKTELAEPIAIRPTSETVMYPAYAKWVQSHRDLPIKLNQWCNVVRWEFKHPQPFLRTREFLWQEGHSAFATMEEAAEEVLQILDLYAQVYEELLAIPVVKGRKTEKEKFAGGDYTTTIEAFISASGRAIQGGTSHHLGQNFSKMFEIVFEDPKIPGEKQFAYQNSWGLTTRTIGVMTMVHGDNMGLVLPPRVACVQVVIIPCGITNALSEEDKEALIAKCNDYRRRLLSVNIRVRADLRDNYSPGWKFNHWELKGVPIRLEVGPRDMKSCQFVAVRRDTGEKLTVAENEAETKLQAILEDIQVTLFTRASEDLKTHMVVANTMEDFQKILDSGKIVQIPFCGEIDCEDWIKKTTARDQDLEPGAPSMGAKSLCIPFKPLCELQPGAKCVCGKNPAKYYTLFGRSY

binding result	Binder
binds	SEQ ID NO 28 (scFv) scFv: EVQLLESGGGLVQPGGSLRLSCAASGFTFSNYAMSWVRQAPGKGLEWVSGIYHGGGNKYYADSVKGRFTISRDNSKNTLYLQMNSLRAEDTAVYYCARTRTLFDYWGQGTLVTVSSGGGGSGGGGSGGGGSQSVLTQPPSASGTPGQRVTISCTGSSSNIGNNAVSWYQQLPGTAPKLLIYANSHRPSGVPDRFSGSKSGTSASLAISGLRSEDEADYYCGTWDASLSGYVFGGGTKLTVL
binds	SEQ ID NO 42 (scFv) scFv: EVQLLESGGGLVQPGGSLRLSCAVSGFTFSSYYMSWVRQAPGKGLEWVSLISPGSGSIYYADSVKGRFTISRDNSKNTLYLQMNSLRAEDTAVYYCARTGWLFDYWGQGTLVTVNSGGGGSGGGGSGGGGSQSVLTQPPSASGTPGQRVTISCSGSSSNIGNNAVNWYQQLPGTAPKLLIYSNSHRPSGVPDRFSGSKSGTSASLAISGLRSEDEADYYCGSWDASLNGYVFGGGTKLTVL
